From patent publication US11806404B2, “Site specific homogeneous with KSP inhibitors” (BAYER PHARMA AKTIENGESELLSCHAFT, priority 2015, dated 2023)
Where two headings read alike, the source gives them in different places.

Assays:
NCI-H292 = assay: MTT assay, cytotoxic effects of the ADCs; format: cell-based; conditions: Homo sapiens, metabolite
Procedure: (§1) The analysis of the cytotoxic effects of the anti-TWEAKR-ADCs was carried out with various cell lines:
NCI-H292: human mucoepidermoid lung carcinoma cells, ATCC-CRL-1848, standard medium: RPMI 1640 (Biochrom; #FG1215, stab. glutamine)+10% FCS (Biochrom; #S0415), TWEAKR-positive, EGFR-positive.
(§2) The cells are cultivated by a standard method, as indicated in the […] (ATCC) for the respective cell lines.
(§3) The test was carried out by detaching the cells with a solution of Accutase in PBS (Biochrom AG #L2143), pelleting, resuspending in culture medium, counting and seeding the cells into a 96-well culture plate with white bottom (Costar #3610, LoVo:1000 cells/well, SK-HEP-1: 1200 cell/well, NCI H292: 1500 cell/well in a total volume of 100 μL). The cells were then incubated in an incubator at 37° C. and 5% carbon dioxide. After 48 h, the antibody drug conjugates were added in 10 μl of culture medium in concentrations of from 10^−5M to 10^−13M to the cells (triplicates) and incubated in an incubator at 37° C. and 5% carbon dioxide. After 96h, the proliferation was measured using the MTT assay (ATCC, Manassas, Va., USA, catalogue No. 30-1010K). […] The dye formed was detected at 570 nm (Infinite M1000 pro, Fa. Tecan). Based on the measured data the IC50 value was determined from the DRC (dose response curve). […]

KPL4 = assay: MTT assay, cytotoxic effects of the ADCs; format: cell-based; conditions: Homo sapiens, metabolite, read-out: KPL-4 IC50 [M] MTT Assay
Procedure: as §1
KPL4: human breast carcinoma cells, standard medium: RPMI 1640+GlutaMAX I+10% FBS, cell bank, Bayer Pharma AG (identity checked and confirmed on 19 Jul. 2012 at DSMZ), Berlin, ERBB2-positive.
as §2, §3

[1] = Caco-2 flux assay for cell permeability; format: in vitro ADME; conditions: human; Caco-2, 2 hours
Procedure: The cell permeability of a substance can be investigated by means of in vitro testing in a flux assay using Caco-2 cells [M. D. Troutman and D. R. Thakker, Pharm. Res. 20 (8), 1210-1224 (2003)]. For this purpose, the cells were cultured for 15-16 days on 24-well filter plates. For the determination of permeation, the respective working example was applied in a HEPES buffer to the cells either apically (A) or basally (B) and incubated for 2 hours. After 0 hours and after 2 hours, samples were taken from the cis and trans compartments. The samples were separated by HPLC (Agilent 1200, Böblingen, Germany) using reverse phase columns. The HPLC system was coupled via a Turbo Ion Spray Interface to a Triple Quadropol mass spectrometer API 4000 (Applied Biosystems Applera, Darmstadt, Germany). The permeability was evaluated on the basis of a Papp value, which was calculated using the formula published by Schwab et al. [D. Schwab et al., J. Med. Chem. 46, 1716-1725 (2003)].
Of critical importance for toxophores which are released intracellularly is the permeability from B to A [Papp (B−A)] and the ratio of Papp (B−A) to Papp (A−B) (efflux ratio): the lower this permeability, the slower the active and passive transport processes of the substance through the monolayer of Caco-2 cells.

[2] = target: hTNFRSF12 amino acids a28-80-L65Q-hIgG1-Fc (TPP-1990) (Homo sapiens (Human), UniProt Q9NP84, L65Q); assay: ELISA mutein binding; conditions: mutein coated 62 ng/ml, biotinylated IgG; read-out: Effect of muteins on antibody binding: L65Q
Procedure: (§4) To this end, the full-length ectodomain (amino acids 28-80) having the individual amino acid substitutions below were expressed and purified as Fc fusion proteins: T33Q; S40R; W42A; M50A; R56P; H60K; L65Q.
(§5) To obtain dose-reaction data, the different TWEAKR-Fc muteins were coated at a low concentration (62 ng/ml) onto a 384-well Maxisorb ELISA plate, and a serial 2-fold dilution of biotinylated IgG beginning with a concentration of 100 nM was used as a soluble binding partner. Detection was carried out using streptavidin-HRP and Amplex Red.
(§6) IgGs were biotinylated using an about 2-fold molar excess of biotin-LC-NHS (Pierce; Cat. No. 21347) according to the instructions of the manufacturer and desalted using Zeba desalting columns (Pierce; Cat. No. 89889). The dose-reaction data were fitted and the IC50s were determined.

[3] = target: hTNFRSF12 amino acids a28-80-H60K-hIgG1-Fc (TPP-1989) (Homo sapiens (Human), UniProt Q9NP84, H60K); assay: ELISA mutein binding; conditions: mutein coated 62 ng/ml, biotinylated IgG; read-out: Effect of muteins on antibody binding: H60K
Procedure: as §4, §5, §6

[4] = target: hTNFRSF12 amino acids a28-80-W42A-hIgG1-Fc (TPP-1985) (Homo sapiens (Human), UniProt Q9NP84, W42A); assay: ELISA mutein binding; conditions: mutein coated 62 ng/ml, biotinylated IgG; read-out: Effect of muteins on antibody binding: W42A
Procedure: as §4, §5, §6

[5] = target: hTNFRSF12 amino acids a28-80-S40R-hIgG1-Fc (TPP-1987) (Homo sapiens (Human), UniProt Q9NP84, S40R); assay: ELISA mutein binding; conditions: mutein coated 62 ng/ml, biotinylated IgG; read-out: Effect of muteins on antibody binding: S40R
Procedure: as §4, §5, §6

[6] = target: hTNFRSF12 amino acids a28-80-M50A-hIgG1-Fc (TPP-1988) (Homo sapiens (Human), UniProt Q9NP84, M50A); assay: ELISA mutein binding; conditions: mutein coated 62 ng/ml, biotinylated IgG; read-out: Effect of muteins on antibody binding: M50A
Procedure: as §4, §5, §6

[7] = target: hTNFRSF12 amino acids a28-80-T33Q-hIgG1-Fc (TPP-1986) (Homo sapiens (Human), UniProt Q9NP84, T33Q); assay: ELISA mutein binding; conditions: mutein coated 62 ng/ml, biotinylated IgG; read-out: Effect of muteins on antibody binding: T33Q
Procedure: as §4, §5, §6

[8] = target: hTNFRSF12 amino acids a28-80-R56P-hIgG1-Fc (TPP-2683) (Homo sapiens (Human), UniProt Q9NP84, R56P); assay: ELISA mutein binding; conditions: mutein coated 62 ng/ml, biotinylated IgG; read-out: Effect of muteins on antibody binding: R56P
Procedure: as §4, §5, §6

TWEAKR = TWEAKR (Homo sapiens (Human), UniProt Q9NP84); conditions: literature values; read-out: published KD values; cited from earlier work
[9] = target: hTNFRSF12 amino acids a28-80-hIgG1-Fc (TPP-599) (Homo sapiens (Human), UniProt Q9NP84); assay: ELISA mutein binding (wild type); conditions: coated 62 ng/ml, biotinylated IgG; read-out: Effect of muteins on antibody binding: WT
Procedure: as §4, §5, §6

[10] = target: recombinant human TWEAKR protein (TPP-2305) (Homo sapiens (Human), UniProt Q9NP84); assay: Biacore surface plasmon resonance binding affinity; conditions: for ka / kd: monovalent, 1:1 binding model
Procedure: Binding affinities of anti-TWEAKR antibodies were examined using surface plasmon resonance analysis on a Biacore T100 instrument (GE Healthcare Biacore, Inc.). The antibodies were immobilized on a CMS sensor chip using an indirect capture reagent, anti-human IgG(Fc). Reagents of the “Human Antibody Capture Kit” (BR-1008-39, GE Healthcare Biacore, Inc.) were used as described by the manufacturer. Anti-TWEAKR antibodies were injected at a concentration of 10 μg/ml at 10 μl/min for 10 sec.
Sensorgrams were generated after in-line reference cell correction, followed by subtraction of the buffer sample. The dissociation constant (KD) was calculated based on the ratio of association (kon) and dissociation (koff) constants, obtained by fitting sensorgrams using a 1:1 first order binding model.

[11] = Biacore, read-out: KD (affinity to TWEAKR)

Row | Molecule | IC50 (NCI-H292) [nM] | IC50 (KPL4) [M] | Papp B→A at 2 h [1] [×10⁻⁶ cm/s] | IC50 [2] [nM] | IC50 [3] [nM] | IC50 [4] [nM] | IC50 [5] [nM] | IC50 [6] [nM] | IC50 [7] [nM] | IC50 [8] [nM] | Kd (TWEAKR) [nM] | IC50 [9] [nM] | Kd [10, 11] [nM] | ka [10] [M⁻¹ s⁻¹] | kd [10] [s⁻¹] | Kd ([10]; monovalent KD, read-out: KD) [nM]
1 | CC(=O)N[C@@H](CCCCNC(=O)CC[C@H](N)C(=O)O)C(=O)NCCNC(=O)[C@@H](N)CCN(C(=O)CO)[C@@H](c1cc(-c2cc(F)ccc2F)cn1Cc1ccccc1)C(C)(C)C.O=C(O)C(F)(F)F [Example M100, N^6-L-gamma-glutamyl-N^2-acetyl-N-[2-({(2S)-2-amino-4-[{(1R)-1-[1-benzyl-4-(2,5-difluorophenyl)-1H-pyrrol-2-yl]-2,2-dimethylpropyl}(glycoloyl)amino]butanoyl}amino)ethyl]-L-lysinamide trifluoro acetate (1:1)] | > 500 | > 5e-07 | 0.12 |  |  |  |  |  |  |  |  |  |  |  |  | 
2 | 18.3.3(TPP-2193): comparative anti-TWEAKR antibody; variable domains "obtained from the patent literature WO2009/020933", constant region added, "resulting in full-length IgGs" (antibody, Mus Musculus) heavy: EVKLGESGGGLVQPGGSMKLSCVASGFPFTKYWMNWVRQSPEKGLEWVAEIRLKSDNYATHYAESAKGRFTISRDDSRSSVYLQMNNLRAEDTAIYYCSPTYADTMDYWGQGTSVTVSSAKTTAPSVYPLAPVCGDTTGSSVTLGCLVKGYFPEPVTLTWNSGSLSSGVHTFPAVLQSDLYTLSSSVTVTSSTWPSQSITCNVAHPASSTKVDKKIEPRGPTIKPCPPCKCPAPNLLGGPSVFIFPPKIKDVLMISLSPIVTCVVVDVSEDDPDVQISWFVNNVEVHTAQTQTHREDYNSTLRVVSALPIQHQDWMSGKEFKCKVNNKDLPAPIERTISKPKGSVRAPQVYVLPPPEEEMTKKQVTLTCMVTDFMPEDIYVEWTNNGKTELNYKNTEPVLDSDGSYFMYSKLRVEKKNWVERNSYSCSVVHEGLHNHHTTKSFSRTPG light: DIVLTQSPASLAVSLGQRATISCKASQSVSTSTYSYMQWYQQRPGQSPKLLIKYASKLDSGVPARFSGSGSGTDFTLNIHPVEEEDTATYYCQHSWELPYTFGGGTRLEIKRADAAPTVSIFPPSSEQLTSGGASVVCFLNNFYPKDINVKWKIDGSERQNGVLNSWTDQDSKDSTYSMSSTLTLTKDEYERHNSYTCEATHKTSTSPIVKSFNRNEC |  |  |  | 0.001 to 0.15 | 0.001 to 0.15 | > 50 | 0.001 to 0.15 | 0.001 to 0.15 | 0.001 to 0.15 | > 50 | 0.2 | 0.001 to 0.15 | 0.7 to 3.7 | 1.64e+07 | 0.0285 | 
3 | P2D3(TPP-2196): comparative anti-TWEAKR antibody; variable domains from patent literature "WO2009/020933 and WO2009/140177", constant region added, "resulting in full-length IgGs" (antibody, Mus Musculus) heavy: QVSLKESGPGILQPSQTLSLTCSFSGFSLSTSGMGVSWIRQPSGKGLEWLAHIYWDDDKRYNPSLKSRLTISKDTSRNQVFLKITSVDTADTATYYCARRGPDYYGYYPMDYWGQGTSVTVSAKTTAPSVYPLAPVCGDTTGSSVTLGCLVKGYFPEPVTLTWNSGSLSSGVHTFPAVLQSDLYTLSSSVTVTSSTWPSQSITCNVAHPASSTKVDKKIEPRGPTIKPCPPCKCPAPNLLGGPSVFIFPPKIKDVLMISLSPIVTCVVVDVSEDDPDVQISWFVNNVEVHTAQTQTHREDYNSTLRVVSALPIQHQDWMSGKEFKCKVNNKDLPAPIERTISKPKGSVRAPQVYVLPPPEEEMTKKQVTLTCMVTDFMPEDIYVEWTNNGKTELNYKNTEPVLDSDGSYFMYSKLRVEKKNWVERNSYSCSVVHEGLHNHHTTKSFSRTPG light: DIVLTQSPASLAVSLGQRATISCRASKSVSTSSYSYMHWYQQKPGQPPKLLIKYTSNLESGVPARFSGSGSGTDFILNIHPVEEEDAATYYCQHSRELPWTFGGGTKLEIKRADAAPTVSIFPPSSEQLTSGGASVVCFLNNFYPKDINVKWKIDGSERQNGVLNSWTDQDSKDSTYSMSSTLTLTKDEYERHNSYTCEATHKTSTSPIVKSFNRNEC |  |  |  |  |  |  |  |  |  |  |  |  | 0.7 to 3.7 | 1.32e+06 | 0.000564 | 0.4
